In paper PMC7110144, “Structural basis for centromere maintenance by Drosophila CENP‐A chaperone CAL1” (The EMBO Journal, 2020):
Changes are numbered by the printed parent chain. Numbers in names are those of the source.

B1: CENP-A(101-225) (domain or fragment, Drosophila melanogaster, UniProt Q9V6Q2 101-225, looked up)
chain: QQESKTRAAGPVAAQNQTRRRKAANPMSRAKRMDREIRRLQHHPGTLIPKLPFSRLVREFIVKYSDDEPLRVTEGALLAMQESCEMYLTQRLADSYMLTKHRNRVTLEVRDMALMAYICDRGRQF
notes: also called CID; histone fold domain of CENP-A
B2: CAL1(841-979) (domain or fragment, Drosophila melanogaster, UniProt Q9VEN2 841-979, looked up)
chain: GGDPDCTVVTSTTGCEPPASERQEIPATIKITKRGILLHSPSAPEGASFTLTEQGLGKIIGERWARKYLKYHIGSRSFDSRHSVYYQPTPQLAAALSAPQDAQNIGNISGSSASDDDIFEQINRYGTVYSILENNSGDK
notes: only residues 890-913 are seen in the structure; source: E. coli BL21 (DE3) Gold, purified; not shown: His6, N-terminal, cleaved; SUMO, N-terminal, cleaved
B3: CENP-A(144-225) (domain or fragment, Drosophila melanogaster, UniProt Q9V6Q2 144-225, looked up)
chain: PGTLIPKLPFSRLVREFIVKYSDDEPLRVTEGALLAMQESCEMYLTQRLADSYMLTKHRNRVTLEVRDMALMAYICDRGRQF
B4: CENP-C(1264-1411) (domain or fragment, Drosophila melanogaster, UniProt Q9VHP9 1264-1411, looked up)
chain: GPVVFSTPLRDEQEEASTKLMQWLRGVGDAPPSASMSDENASVSSANELIFCQVDGIDYAFYNTKEKAMLGYMRFKPYQKRSMKQAKVHPLKLLVQFGEFNVETLAVGEEKEVHSVLRVGDMIEIDRGTRYSIQNAIDKVSVLMCIRS
notes: also called CENP-C cupin domain; source: E. coli Rosetta (DE3), purified; tag removed with 3C, SEC; not shown: His, N-terminal, cleaved
B5: His-CENP-C(1264-1411) (domain or fragment)
chain: B4 chain
notes: vector pEC-K-3C-His; also called CENP-C cupin domain; source: E. coli Rosetta (DE3), purified (HisTrap, SEC); not shown: His, N-terminal, kept
B6: His-CAL1(1-160) F43R (domain or fragment)
chain: MANAVVDEETLEAMVYERSKAWSSKMADFASLEDGMEIDVAERDNLFHGEDEDPDLDDVAKEAVEDNVPDEAKLEMGHINATSVTELTLILCANEDNEAKAEIEEILNQTVPVVEEHKRKWREAGLDRILDTFDEKQIEHHVGRWMRRHNSVYLEASPPK
notes: CAL1, Drosophila melanogaster, residues 1-160, codon optimised; source: E. coli, recombinant, purified; not shown: His, N-terminal, kept
B7: His-CAL1(1-160-LL-841-979) (domain or fragment, Drosophila melanogaster)
chain: MANAVVDEETLEAMVYERSKAWSSKMADFASLEDGMEIDVAEFDNLFHGEDEDPDLDDVAKEAVEDNVPDEAKLEMGHINATSVTELTLILCANEDNEAKAEIEEILNQTVPVVEEHKRKWREAGLDRILDTFDEKQIEHHVGRWMRRHNSVYLEASPPKGSSGGSSGGGDPDCTVVTSTTGCEPPASERQEIPATIKITKRGILLHSPSAPEGASFTLTEQGLGKIIGERWARKYLKYHIGSRSFDSRHSVYYQPTPQLAAALSAPQDAQNIGNISGSSASDDDIFEQINRYGTVYSILENNSGDK
notes: CAL1, Drosophila melanogaster, residues 1-160; flexible linker (LL) in place of residues 161-840; not shown: His, N-terminal, kept
B8: CAL1(F43R)-V5 (in U2OS cells) (natural protein, Drosophila melanogaster, UniProt Q9VEN2 1-979, looked up)
chain: MANAVVDEETLEAMVYERSKAWSSKMADFASLEDGMEIDVAERDNLFHGEDEDPDLDDVAKEAVEDNVPDEAKLEMGHINATSVTELTLILCANEDNEAKAEIEEILNQTVPVVEEHKRKWREAGLDRILDTFDEKQIEHHVGRWMRRHNSVYLEASPPKYLPPHHNSISDESDESMHSIDTARYIQQSRRRNAHMTNKNMTTIKMYRKHSHKRDELRAKYAYGDEQEHRHHMQAVLLRRRERERQLAYLASTPMQCVYSSGHHMRRKNLRKRRINSWMFDSASSSEEDTSFGGCDCHSCRRHYALSRSVYQSCPYGRGQREYHHRQMASRTMHTMRRQHTFDMEMDLRPRLPENECSCCNSDRLCSNVIHIANSSTEEWVVENRSNHLTQETQEKTRKQKHQPMDARKVSHQPVCSKGHEQKPLSSKATSVSKLVLSKEKYMQMFDSESSDEDNALAKKGLLCCSDKKKGMTFPTPNAAGKITHPTSSAKKAIRKEARPNGLAQIQEEGPTATNSPIESTYLPVAHMKSVSIDGSSGTSATFESPAKKAPKRGIRETSPLNGNELQQLISTIPIADEKASSLMEKVDNCIGRESFDDRNKDFMHMENSSTKTAVEKSTKQKRVSGKKSEIPKSIITNNEILEKNSTETLSEKQVAAKAKKQSVRKTGATGKPSTSRLKKSEKTKTTSSVTSTSKLEQVREEESDVSSEVLAKPKPQCSTTASILKQGGDGASNSEDDLQIALAMSKATYKEEQQKRKKTKREPSNKQPQSPAEKSMTVFNNQSVACNSTALANDTACYRVLPKRRGVKRAAAVSTTEEKTATNSSSSPTSSLEEMGSPTGGDPDCTVVTSTTGCEPPASERQEIPATIKITKRGILLHSPSAPEGASFTLTEQGLGKIIGERWARKYLKYHIGSRSFDSRHSVYYQPTPQLAAALSAPQDAQNIGNISGSSASDDDIFEQINRYGTVYSILENNSGDK
notes: CAL1, Drosophila melanogaster; non-codon-optimised; source: U2OS cells with a LacO array, transfected, in cells; not shown: V5, C-terminal, kept

Tests used:
His-CAL1(1-160) [1] = target: T1, His-CAL1(1-160) (Drosophila melanogaster, UniProt Q9VEN2 1-160); experiment: cross-linking; gel-filtered complex dialysed into PBS; EDC/sulpho-NHS 1.5 h or BS3 2 h at RT; gel bands digested with trypsin, LC-MS/MS; settings: both partners purified
T1 construct: CAL1, Drosophila melanogaster, residues 1-160; In crystal form I only CAL1 residues 17-47 were seen; the authors conclude that CAL1 was proteolytically cleaved during crystallisation; also called His-CAL1(1-160 WT); source: E. coli BL21 (DE3) Gold, purified (HisTrap native or Ni-NTA denaturing; SEC); not shown: His, N-terminal, kept
T1 sequence (looked up): B6 chain with R43F

H4 [2] = target: T2, H4 (Drosophila melanogaster, UniProt P84040 1-103); experiment: crystal structure; crystal form I; complex at 27 mg/ml in 20 mM Tris-HCl pH 8.0, 1 M NaCl, 5 mM DTT; 0.01 M cobalt(II) chloride, 0.1 M MES pH 6.5, 1.8 M ammonium sulphate, 18°C; crystals after about a year; settings: both partners purified
T2 construct: histone H4, Drosophila melanogaster (dm H4); plasmid pET22b H4, gift of Karolin Luger; also called histone H4; dm H4

CENP-C(1264-1411) = target: B4; experiment: AUC; sedimentation velocity (49 k rpm) and sedimentation equilibrium (26 k rpm), 4°C; untagged proteins and SEC purified untagged complex; a range of concentrations, up to 10 mg/ml; settings: both partners purified
His-CAL1(1-160) [3] = target: T1, His-CAL1(1-160); experiment: crystal structure; crystal form II; complex in 20 mM Tris-HCl pH 8.0, 1 M NaCl, 2 mM DTT; lithium sulphate, 0.1 M Tris pH 8.5, PEG 4000; anisotropic diffraction; settings: both partners purified
H4 [4] = target: T2, H4; experiment: as above; settings: both partners purified
[5] = target: the molecule itself; experiment: SEC-MALS; Superdex 75 increase 10/300 GL, 50 mM HEPES pH 8.0, 100 mM NaCl, 1 mM TCEP, 4°C
[6] = target: T3, His-CAL1(1-160-LL-841-979)/CENP-A(101-225)/H4 (Drosophila melanogaster, UniProt Q9VEN2 1-160; Q9VEN2 841-979; Q9V6Q2 101-225; P84040 1-103); experiment: SEC; refolded His-CAL1(1-160-LL-841-979)/CENP-A(101-225)/H4 alone or mixed with 1.2 molar excess of His-CENP-C(1264-1411); Superdex 200 increase 10/300, 20 mM Tris-HCl pH 8.0, 100 mM NaCl, 2 mM DTT; settings: both partners purified
T3 construct: CAL1, Drosophila melanogaster, residues 1-160; flexible linker (LL) in place of residues 161-840; histone H4, Drosophila melanogaster (dm H4); plasmid pET22b H4; not shown: His, N-terminal, kept; copies: + +

CENP-A(101-225)-H4 [7] = target: T4, CENP-A(101-225)-H4 (Drosophila melanogaster, UniProt Q9V6Q2 101-225; P84040 1-103); experiment: pull-down; His-CAL1(1-160) WT or mutant mixed with 1.3 times molar excess of CENP-A(101-225)-H4 and captured on Ni-NTA resin; 20 mM Tris-HCl pH 8.0, 2 M NaCl, 10% glycerol, 0.5% NP40, 35 mM imidazole, 2 mM βME, 30 min at 4°C; Coomassie-stained SDS-PAGE; settings: both partners purified
T4 construct: histone H4, Drosophila melanogaster (dm H4); plasmid pET22b H4, gift of Karolin Luger; also called CENP-A/H4; CENP-A/H4 complex

His-CENP-C(1264-1411) = target: B5; experiment: SEC; refolded His-CAL1(1-160-LL-841-979)/CENP-A(101-225)/H4 alone or mixed with 1.2 molar excess of His-CENP-C(1264-1411); Superdex 200 increase 10/300, 20 mM Tris-HCl pH 8.0, 100 mM NaCl, 2 mM DTT; settings: both partners purified
CENP-A(101-225)-H4 [8] = target: T4, CENP-A(101-225)-H4; experiment: as above; settings: both partners purified
[9] = target: T5, CENP-A-GFP-LacI (in U2OS cells) (Drosophila melanogaster, UniProt Q9V6Q2 1-225); experiment: LacO/LacI tethering assay (recruitment seen by immunofluorescence); human U2OS cells with a LacO array; GFP-LacI fusion tethered, recruitment of co-transfected CAL1-V5 measured at the LacO spot; settings: partners not purified
T5 construct: CENP-A (CID), Drosophila melanogaster; source: U2OS cells with a LacO array, transfected (pN2-CMV vector), in cells; not shown: GFP, C-terminal, kept; LacI, C-terminal, kept
T5 sequence (looked up): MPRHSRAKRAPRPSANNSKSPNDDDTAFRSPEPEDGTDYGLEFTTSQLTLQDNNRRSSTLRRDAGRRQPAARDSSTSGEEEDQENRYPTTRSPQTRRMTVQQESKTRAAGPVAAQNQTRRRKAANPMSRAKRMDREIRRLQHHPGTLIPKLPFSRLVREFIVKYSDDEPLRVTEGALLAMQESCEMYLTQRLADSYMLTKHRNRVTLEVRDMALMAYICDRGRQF

Which results are given for B1?
binding result (His-CAL1(1-160) [1]): binds; binding result (H4 [2]): binds

With B2 as the binder, how does the “stoichiometry N” value (CENP-C(1264-1411)) read?
The value was 1 CAL1 per CENP-C dimer (2:1 CENP-C:CAL1).

Does B3 bind (His-CAL1(1-160) [3])?
Result: binds

Does B3 bind (H4 [4])?
Result: binds

Which “stoichiometry N” value [5] does the source give for B4 here?
The value was 2.

Does B5 bind [6]?
Result: binds

Does B6 bind (CENP-A(101-225)-H4 [7])?
Result: binds

Does B7 bind (His-CENP-C(1264-1411))?
Result: binds

Does B7 bind (CENP-A(101-225)-H4 [8])?
Result: binds

How did the “fold change of recruitment against CAL1 WT” value [9] turn out when B8 was run?
The value was 3 fold less than CAL1 WT.
